Here are results for one molecule from patent publication US20240287161A1 (NATIONAL UNIVERSITY CORPORATION TOTTORI UNIVERSITY, published 2024).

In assay [1] the target is T1, HCoV-NL63 trimeric S protein (amino acids 22-1293) with T4 foldon, histidine tag and strep-tag (HCoV-NL63, UniProt Q6Q1S2 23-1293).
T1 sequence: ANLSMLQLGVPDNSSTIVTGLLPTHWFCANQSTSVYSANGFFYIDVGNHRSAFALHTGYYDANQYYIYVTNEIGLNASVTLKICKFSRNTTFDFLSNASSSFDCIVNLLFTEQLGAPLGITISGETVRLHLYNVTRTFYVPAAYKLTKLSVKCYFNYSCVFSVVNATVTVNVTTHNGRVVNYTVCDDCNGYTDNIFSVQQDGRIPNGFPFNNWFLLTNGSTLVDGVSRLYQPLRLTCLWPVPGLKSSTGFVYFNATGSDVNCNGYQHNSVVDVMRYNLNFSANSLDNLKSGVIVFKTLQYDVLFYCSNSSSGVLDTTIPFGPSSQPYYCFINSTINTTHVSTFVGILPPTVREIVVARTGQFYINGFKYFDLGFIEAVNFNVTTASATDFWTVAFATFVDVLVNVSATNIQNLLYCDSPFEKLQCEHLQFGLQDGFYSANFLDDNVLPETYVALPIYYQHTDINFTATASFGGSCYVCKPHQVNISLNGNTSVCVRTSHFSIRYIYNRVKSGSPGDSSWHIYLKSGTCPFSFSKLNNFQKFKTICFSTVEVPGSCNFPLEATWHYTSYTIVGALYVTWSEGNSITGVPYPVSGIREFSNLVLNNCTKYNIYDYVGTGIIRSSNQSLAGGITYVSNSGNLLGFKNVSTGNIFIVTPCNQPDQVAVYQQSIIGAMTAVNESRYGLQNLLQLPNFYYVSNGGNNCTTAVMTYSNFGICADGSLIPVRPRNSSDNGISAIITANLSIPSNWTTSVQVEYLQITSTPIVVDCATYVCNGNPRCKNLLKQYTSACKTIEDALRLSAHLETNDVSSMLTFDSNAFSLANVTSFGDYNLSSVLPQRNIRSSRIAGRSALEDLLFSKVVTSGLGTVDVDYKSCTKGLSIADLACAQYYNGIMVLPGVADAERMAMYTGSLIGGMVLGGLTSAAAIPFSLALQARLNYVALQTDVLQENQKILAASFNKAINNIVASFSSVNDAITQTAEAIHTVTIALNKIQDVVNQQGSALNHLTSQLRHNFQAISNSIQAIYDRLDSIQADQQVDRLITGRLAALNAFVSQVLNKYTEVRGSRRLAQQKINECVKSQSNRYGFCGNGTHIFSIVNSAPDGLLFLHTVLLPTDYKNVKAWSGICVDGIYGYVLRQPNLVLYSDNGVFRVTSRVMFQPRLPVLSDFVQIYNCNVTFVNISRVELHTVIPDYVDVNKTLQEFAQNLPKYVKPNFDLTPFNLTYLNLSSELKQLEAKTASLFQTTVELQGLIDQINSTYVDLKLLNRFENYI
The assay can be described thus: ELISA on coated S-trimeric antigen, anti-human IgG-HRP [Human IgG1, NT-193]. For orientation: ELISA stands for enzyme-linked immunosorbent assay.

For assay [2], the target named is T2, HCoV-229E trimeric S protein (amino acids 12-1109) with T4 foldon, histidine tag and strep-tag (HCoV-229E, UniProt P15423 12-1112).
T2 chain: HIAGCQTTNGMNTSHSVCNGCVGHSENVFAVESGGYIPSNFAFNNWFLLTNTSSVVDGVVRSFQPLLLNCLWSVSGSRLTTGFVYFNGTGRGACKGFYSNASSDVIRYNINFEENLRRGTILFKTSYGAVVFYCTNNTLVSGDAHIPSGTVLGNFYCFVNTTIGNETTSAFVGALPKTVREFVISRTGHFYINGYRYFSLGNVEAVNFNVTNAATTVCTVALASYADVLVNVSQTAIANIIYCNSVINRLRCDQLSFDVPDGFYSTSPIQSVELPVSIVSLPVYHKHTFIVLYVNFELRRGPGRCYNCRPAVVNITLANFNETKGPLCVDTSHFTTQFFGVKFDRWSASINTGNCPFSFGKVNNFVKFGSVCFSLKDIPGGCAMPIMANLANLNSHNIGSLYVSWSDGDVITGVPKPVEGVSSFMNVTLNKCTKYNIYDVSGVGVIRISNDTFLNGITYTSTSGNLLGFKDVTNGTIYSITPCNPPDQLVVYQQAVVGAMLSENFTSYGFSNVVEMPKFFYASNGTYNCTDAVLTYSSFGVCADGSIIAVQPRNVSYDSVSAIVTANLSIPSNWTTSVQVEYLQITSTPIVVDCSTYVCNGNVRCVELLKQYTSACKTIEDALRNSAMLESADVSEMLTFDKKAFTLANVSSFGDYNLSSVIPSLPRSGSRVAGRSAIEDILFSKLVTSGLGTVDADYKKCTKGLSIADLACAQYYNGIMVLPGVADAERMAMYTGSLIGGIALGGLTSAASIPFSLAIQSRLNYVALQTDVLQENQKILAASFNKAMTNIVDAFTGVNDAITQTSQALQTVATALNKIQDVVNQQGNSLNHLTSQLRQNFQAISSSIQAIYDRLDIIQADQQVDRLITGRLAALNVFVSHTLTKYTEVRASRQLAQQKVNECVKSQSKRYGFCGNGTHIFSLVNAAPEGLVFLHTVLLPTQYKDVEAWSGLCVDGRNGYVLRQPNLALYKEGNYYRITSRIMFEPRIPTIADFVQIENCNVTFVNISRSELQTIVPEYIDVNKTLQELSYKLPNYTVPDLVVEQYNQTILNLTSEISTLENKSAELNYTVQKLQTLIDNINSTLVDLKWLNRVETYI
The assay is described as above.

B1: NT-193 (recombinant human IgG1/kappa antibody) (antibody, V domains shown)
VH: EVQLQQWGAGLLKPSETLSLTCAVYGGSFSGYYWSWIRQPPGKGLEWIGEINHSGSTNYNPSLKSRVTISVDTSKNQFSLKLSSVTAADTAVYYCARGWDLDYYYGMDVWGQGTTVTVSS
VL: DIRMTQSPSAMSASVGDRVTVTCRASQGIGNYLAWFQLKPGKVPKRLIYAASSLQSGVPARFSGGGSGTEFTLTISSLQPEDFATYYCLQHGFLPWTFGQGTKLEIK
In the case of B1, the binding result in assay [1] and in assay [2] was “no binding (tested: 1000 ng/ml)” each time.
